Data taken from patent publication US20240247080A1, “GLP1/GIP/NPY2 RECEPTOR TRIPLE AGONISTS” (Boehringer Ingelheim International GmbH, priority 2022, published 2024).
Positions count from the first letter of the chain named. Starred links: 1 amine or outer side, 2 acyl side, 3 side chain; linkers in the order of their positions; H or OH if unused. Non-standard residues stand in square brackets, D forms with d. Groups on a side chain read outwards from the residue. No end group written: not given here. *: point of attachment. C18 diacid = O=C(O)CCCCCCCCCCCCCCCCC(=O)*; γGlu = O=C(O)[C@H](CCC(=O)[*:2])N[*:1]; AEEA = NCCOCCOCC(=O)O; Aib = CC(C)(N)C(=O)O

T1: NPY2 receptor (human (printed as hNPY2R), UniProt P49146 1-381)
T1 sequence (looked up): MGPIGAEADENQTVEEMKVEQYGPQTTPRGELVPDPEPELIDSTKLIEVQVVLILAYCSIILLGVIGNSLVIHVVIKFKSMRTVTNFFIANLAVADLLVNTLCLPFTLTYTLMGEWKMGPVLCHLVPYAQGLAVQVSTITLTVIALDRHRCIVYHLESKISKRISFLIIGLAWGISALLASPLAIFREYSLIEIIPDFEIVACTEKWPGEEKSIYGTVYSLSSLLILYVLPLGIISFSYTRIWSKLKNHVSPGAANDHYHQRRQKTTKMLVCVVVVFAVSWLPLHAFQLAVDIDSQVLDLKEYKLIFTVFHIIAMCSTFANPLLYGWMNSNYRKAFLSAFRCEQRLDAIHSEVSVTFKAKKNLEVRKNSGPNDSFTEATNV

T2: GIP receptor (human (printed as hGIPR), UniProt P48546 22-466)
T2 sequence (looked up): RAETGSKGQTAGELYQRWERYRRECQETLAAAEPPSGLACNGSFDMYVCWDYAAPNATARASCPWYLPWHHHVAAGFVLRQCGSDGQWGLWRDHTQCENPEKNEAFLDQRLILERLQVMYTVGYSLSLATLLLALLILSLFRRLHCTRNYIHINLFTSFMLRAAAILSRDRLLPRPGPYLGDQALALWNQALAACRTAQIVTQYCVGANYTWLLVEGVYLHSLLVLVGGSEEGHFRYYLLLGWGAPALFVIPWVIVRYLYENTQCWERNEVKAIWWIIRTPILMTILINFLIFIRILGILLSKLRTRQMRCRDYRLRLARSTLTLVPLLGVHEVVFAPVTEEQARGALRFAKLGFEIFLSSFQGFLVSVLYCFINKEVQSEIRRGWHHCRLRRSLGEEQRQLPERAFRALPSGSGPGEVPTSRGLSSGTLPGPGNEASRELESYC

B1: Compound 258 (peptide)
peptide: Y[Aib]EGTFTSDYSI[Aib]LEKQAQ[Aib]AFIEWLIKGGPSEGASLRHYYNWLTRQRY-NH2
modifications: not fully specified (residue 28); also: TFA salt
B2: Compound 245 (peptide)
peptide: Y[Aib]EGTFTSDYSI[Aib]LEKQAQ[Aib]AFVQWLIKGGPSEGASLRHYYNWLTRQRY-NH2
modifications: not fully specified (residue 28); also: TFA salt
B3: Compound 254 (peptide)
peptide: Y[Aib]EGTFTSDYSI[Aib]LEKQAQ[Aib]AFVEWLIK([AEEA-AEEA-γGlu-γGlu-γGlu-γGlu-C18 diacid])GGPSSGASLRHYYNWLTRQRY-NH2
modifications: also: TFA salt
B4: Compound 251 (peptide)
peptide: Y[Aib]EGTFTSDYSI[Aib]LEKQAE[Aib]AFVEWLIK([AEEA-AEEA-γGlu-γGlu-γGlu-γGlu-C18 diacid])GGPSEGASLRHYYNWLTRQRY-NH2
modifications: also: TFA salt
B5: Compound 256 (peptide)
peptide: Y[Aib]EGTFTSDYSI[Aib]LEKQAQ[Aib]AFVEWLIK([AEEA-AEEA-γGlu-γGlu-γGlu-γGlu-C18 diacid])GGPSEPASLRHYYNWLTRQRY-NH2
modifications: also: TFA salt
B6: Compound 255 (peptide)
peptide: YXEGTFTSDYSIXLEKQAQXEFVEWLIKGGPSEGASLRHYYNWLTRQRY
modifications: Aib at 2, 13, 20; K28 side chain carries C18DA-gGlu-gGlu-gGlu-gGlu-gGlu-gGlu-eLys; C-terminal amide
B7: Compound 246 (peptide)
peptide: B6 peptide with E21A, E24Q
modifications: Aib at 2, 13, 20; K28 side chain carries C18DA-gGlu-gGlu-gGlu-gGlu-gGlu-OEG-OEG; C-terminal amide
B8: Compound 257 (peptide)
peptide: B6 peptide with E21A, E24Q
modifications: Aib at 2, 13, 20; K28 side chain carries C18DA-E-E-E-E-E (SEQ ID NO: 636); C-terminal amide
B9: Compound 250 (peptide)
peptide: B6 peptide with E21A, E24Q
modifications: Aib at 2, 13, 20; K28 side chain carries C18DA-gGlu-gGlu-gGlu-gGlu-gGlu; C-terminal amide
B10: Compound 253 (peptide)
peptide: B6 peptide with E21A, E33S
modifications: Aib at 2, 13, 20; K28 side chain carries C18DA-gGlu-gGlu-gGlu-gGlu-gGlu; C-terminal amide

Target: GLP-1 receptor (human (printed as hGLP1R), UniProt P43220 24-463)
Test: cell-based or functional assay

Binder	EC50 hGLP1R 0.5% hP (CreLuc)	EC50 hGLP1R 100% hP (CreLuc)
B1	0.17 nM	2.52 nM
B2	0.09 nM	3.78 nM
B3	0.07 nM	1.69 nM
B4	0.49 nM	7.16 nM
B5	0.18 nM	4.59 nM
B6	0.34 nM	7.31 nM
B7	0.11 nM	2.7 nM
B8	0.08 nM	2.48 nM
B9	0.08 nM	2.03 nM
B10	0.08 nM	0.74 nM

Target: T1, NPY2 receptor
Test: cell-based or functional assay

Binder	EC50 hNPY2R 0.5% hP (CreLuc)	EC50 hNPY2R 100% hP (CreLuc)
B1	22.3 nM	72 nM
B2	24.5 nM	66.9 nM
B3	17.8 nM	30.9 nM
B4	20.6 nM	48.7 nM
B5	10.9 nM	27 nM
B6	17.3 nM	40.9 nM
B7	12.8 nM	28.2 nM
B8	16.9 nM	96.3 nM
B9	12.2 nM	37.4 nM
B10	13.4 nM	39.3 nM

Target: T2, GIP receptor
Test: cell-based or functional assay

Binder	EC50 hGIPR 0.5% hP (CreLuc)	EC50 hGIPR 100% hP (CreLuc)
B1	0.16 nM	1.23 nM
B2	0.37 nM	1.74 nM
B3	0.22 nM	0.63 nM
B4	0.16 nM	0.98 nM
B5	0.23 nM	1.56 nM
B6	0.46 nM	1.23 nM
B7	0.16 nM	0.95 nM
B8	0.14 nM	1.48 nM
B9	0.2 nM	1.25 nM
B10	0.24 nM	0.64 nM
